From patent US8637237

Target: mouse RXRα (mRXRα) (mouse) (UniProt P28700)
Assay: cell-based or functional assay

GGF-dependent transcriptional induction by farnesol (40 µM), FIG. 16D: 2 fold
Substance: GGF (human glucocorticoid receptor amino terminus and DBD linked to the carboxyl terminus (LBD) of FXR) (from UniProt P04150 1-509; Q62735 188-469)
